The target in the experiment is human corticotropin-releasing factor 2α (CRF2 α receptor) (human), Q13324. Nature of the experiment: cell-based or functional assay.

Starred links: 1 amine or outer side, 2 acyl side, 3 side chain; linkers in the order of their positions; H or OH if unused. Non-standard residues stand in square brackets, D forms with d. Groups on a side chain read outwards from the residue. No end group written: not given here. *: point of attachment. C18 diacid = O=C(O)CCCCCCCCCCCCCCCCC(=O)*; γGlu = O=C(O)[C@H](CCC(=O)[*:2])N[*:1]; AEEA = NCCOCCOCC(=O)O; Aib = CC(C)(N)C(=O)O

Sequence of human corticotropin-releasing factor 2α (CRF2 α receptor) (human), Q13324 (Q13324 20-411): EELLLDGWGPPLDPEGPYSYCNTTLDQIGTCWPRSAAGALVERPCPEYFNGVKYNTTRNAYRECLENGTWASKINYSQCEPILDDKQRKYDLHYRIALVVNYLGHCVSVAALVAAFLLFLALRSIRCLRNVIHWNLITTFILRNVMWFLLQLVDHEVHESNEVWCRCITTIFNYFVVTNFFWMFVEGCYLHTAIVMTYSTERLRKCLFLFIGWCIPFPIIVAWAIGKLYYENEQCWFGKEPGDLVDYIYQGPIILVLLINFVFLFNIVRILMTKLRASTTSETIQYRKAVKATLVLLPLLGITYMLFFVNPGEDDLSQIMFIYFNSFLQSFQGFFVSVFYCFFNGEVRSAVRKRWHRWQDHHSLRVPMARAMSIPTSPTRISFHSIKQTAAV

B1: SEQ ID NO: 100 (peptide)
peptide: IVLSLDVPIKLK([AEEA-AEEA-γGlu-C18 diacid])KILLKQERQKK[Aib]REQAETN[Aib]QILAQV-NH2
modifications: N-terminus assumed
SMILES: CC[C@H](C)[C@H](N)C(=O)N[C@H](C(=O)N[C@@H](CC(C)C)C(=O)N[C@@H](CO)C(=O)N[C@@H](CC(C)C)C(=O)N[C@@H](CC(=O)O)C(=O)N[C@H](C(=O)N1CCC[C@H]1C(=O)N[C@H](C(=O)N[C@@H](CCCCN)C(=O)N[C@@H](CC(C)C)C(=O)N[C@@H](CCCCNC(=O)COCCOCCNC(=O)COCCOCCNC(=O)CC[C@H](NC(=O)CCCCCCCCCCCCCCCCC(=O)O)C(=O)O)C(=O)N[C@@H](CCCCN)C(=O)N[C@H](C(=O)N[C@@H](CC(C)C)C(=O)N[C@@H](CC(C)C)C(=O)N[C@@H](CCCCN)C(=O)N[C@@H](CCC(N)=O)C(=O)N[C@@H](CCC(=O)O)C(=O)N[C@@H](CCCNC(=N)N)C(=O)N[C@@H](CCC(N)=O)C(=O)N[C@@H](CCCCN)C(=O)N[C@@H](CCCCN)C(=O)NC(C)(C)C(=O)N[C@@H](CCCNC(=N)N)C(=O)N[C@@H](CCC(=O)O)C(=O)N[C@@H](CCC(N)=O)C(=O)N[C@@H](C)C(=O)N[C@@H](CCC(=O)O)C(=O)N[C@H](C(=O)N[C@@H](CC(N)=O)C(=O)NC(C)(C)C(=O)N[C@@H](CCC(N)=O)C(=O)N[C@H](C(=O)N[C@@H](CC(C)C)C(=O)N[C@@H](C)C(=O)N[C@@H](CCC(N)=O)C(=O)N[C@H](C(N)=O)C(C)C)[C@@H](C)CC)[C@@H](C)O)[C@@H](C)CC)[C@@H](C)CC)C(C)C)C(C)C
The molecule B1 registered an EC50 [nM], 0% HSA of 0.51 nM and an EC50 [nM], 0.1% HSA of 20.5 nM.

B2: SEQ ID NO: 101 (peptide)
peptide: IVLSLDVPIKLK([AEEA-AEEA-γGlu-C18 diacid])KILLKQERQKK[Aib]REQAETNKQILERV-NH2
modifications: N-terminus assumed
SMILES: CC[C@H](C)[C@H](N)C(=O)N[C@H](C(=O)N[C@@H](CC(C)C)C(=O)N[C@@H](CO)C(=O)N[C@@H](CC(C)C)C(=O)N[C@@H](CC(=O)O)C(=O)N[C@H](C(=O)N1CCC[C@H]1C(=O)N[C@H](C(=O)N[C@@H](CCCCN)C(=O)N[C@@H](CC(C)C)C(=O)N[C@@H](CCCCNC(=O)COCCOCCNC(=O)COCCOCCNC(=O)CC[C@H](NC(=O)CCCCCCCCCCCCCCCCC(=O)O)C(=O)O)C(=O)N[C@@H](CCCCN)C(=O)N[C@H](C(=O)N[C@@H](CC(C)C)C(=O)N[C@@H](CC(C)C)C(=O)N[C@@H](CCCCN)C(=O)N[C@@H](CCC(N)=O)C(=O)N[C@@H](CCC(=O)O)C(=O)N[C@@H](CCCNC(=N)N)C(=O)N[C@@H](CCC(N)=O)C(=O)N[C@@H](CCCCN)C(=O)N[C@@H](CCCCN)C(=O)NC(C)(C)C(=O)N[C@@H](CCCNC(=N)N)C(=O)N[C@@H](CCC(=O)O)C(=O)N[C@@H](CCC(N)=O)C(=O)N[C@@H](C)C(=O)N[C@@H](CCC(=O)O)C(=O)N[C@H](C(=O)N[C@@H](CC(N)=O)C(=O)N[C@@H](CCCCN)C(=O)N[C@@H](CCC(N)=O)C(=O)N[C@H](C(=O)N[C@@H](CC(C)C)C(=O)N[C@@H](CCC(=O)O)C(=O)N[C@@H](CCCNC(=N)N)C(=O)N[C@H](C(N)=O)C(C)C)[C@@H](C)CC)[C@@H](C)O)[C@@H](C)CC)[C@@H](C)CC)C(C)C)C(C)C
Take B2: the EC50 [nM], 0% HSA amounted to 0.11 nM and the EC50 [nM], 0.1% HSA was 4.28 nM.

B3: SEQ ID NO: 103 (peptide)
peptide: IVLSLDVPIKLK([AEEA-AEEA-γGlu-C18 diacid])QILLEQERQK[Aib]QREQAETNKQILAQV-NH2
modifications: N-terminus assumed
SMILES: CC[C@H](C)[C@H](N)C(=O)N[C@H](C(=O)N[C@@H](CC(C)C)C(=O)N[C@@H](CO)C(=O)N[C@@H](CC(C)C)C(=O)N[C@@H](CC(=O)O)C(=O)N[C@H](C(=O)N1CCC[C@H]1C(=O)N[C@H](C(=O)N[C@@H](CCCCN)C(=O)N[C@@H](CC(C)C)C(=O)N[C@@H](CCCCNC(=O)COCCOCCNC(=O)COCCOCCNC(=O)CC[C@H](NC(=O)CCCCCCCCCCCCCCCCC(=O)O)C(=O)O)C(=O)N[C@@H](CCC(N)=O)C(=O)N[C@H](C(=O)N[C@@H](CC(C)C)C(=O)N[C@@H](CC(C)C)C(=O)N[C@@H](CCC(=O)O)C(=O)N[C@@H](CCC(N)=O)C(=O)N[C@@H](CCC(=O)O)C(=O)N[C@@H](CCCNC(=N)N)C(=O)N[C@@H](CCC(N)=O)C(=O)N[C@@H](CCCCN)C(=O)NC(C)(C)C(=O)N[C@@H](CCC(N)=O)C(=O)N[C@@H](CCCNC(=N)N)C(=O)N[C@@H](CCC(=O)O)C(=O)N[C@@H](CCC(N)=O)C(=O)N[C@@H](C)C(=O)N[C@@H](CCC(=O)O)C(=O)N[C@H](C(=O)N[C@@H](CC(N)=O)C(=O)N[C@@H](CCCCN)C(=O)N[C@@H](CCC(N)=O)C(=O)N[C@H](C(=O)N[C@@H](CC(C)C)C(=O)N[C@@H](C)C(=O)N[C@@H](CCC(N)=O)C(=O)N[C@H](C(N)=O)C(C)C)[C@@H](C)CC)[C@@H](C)O)[C@@H](C)CC)[C@@H](C)CC)C(C)C)C(C)C
In turn, B3 showed an EC50 [nM], 0% HSA of 0.84 nM.

B4: SEQ ID NO: 102 (peptide)
peptide: IVLSLD[dV]PIKLK([AEEA-AEEA-γGlu-C18 diacid])QILLKQERQKKQREQAETNKQILAQV-NH2
modifications: N-terminus assumed
SMILES: CC[C@H](C)[C@H](N)C(=O)N[C@H](C(=O)N[C@@H](CC(C)C)C(=O)N[C@@H](CO)C(=O)N[C@@H](CC(C)C)C(=O)N[C@@H](CC(=O)O)C(=O)N[C@@H](C(=O)N1CCC[C@H]1C(=O)N[C@H](C(=O)N[C@@H](CCCCN)C(=O)N[C@@H](CC(C)C)C(=O)N[C@@H](CCCCNC(=O)COCCOCCNC(=O)COCCOCCNC(=O)CC[C@H](NC(=O)CCCCCCCCCCCCCCCCC(=O)O)C(=O)O)C(=O)N[C@@H](CCC(N)=O)C(=O)N[C@H](C(=O)N[C@@H](CC(C)C)C(=O)N[C@@H](CC(C)C)C(=O)N[C@@H](CCCCN)C(=O)N[C@@H](CCC(N)=O)C(=O)N[C@@H](CCC(=O)O)C(=O)N[C@@H](CCCNC(=N)N)C(=O)N[C@@H](CCC(N)=O)C(=O)N[C@@H](CCCCN)C(=O)N[C@@H](CCCCN)C(=O)N[C@@H](CCC(N)=O)C(=O)N[C@@H](CCCNC(=N)N)C(=O)N[C@@H](CCC(=O)O)C(=O)N[C@@H](CCC(N)=O)C(=O)N[C@@H](C)C(=O)N[C@@H](CCC(=O)O)C(=O)N[C@H](C(=O)N[C@@H](CC(N)=O)C(=O)N[C@@H](CCCCN)C(=O)N[C@@H](CCC(N)=O)C(=O)N[C@H](C(=O)N[C@@H](CC(C)C)C(=O)N[C@@H](C)C(=O)N[C@@H](CCC(N)=O)C(=O)N[C@H](C(N)=O)C(C)C)[C@@H](C)CC)[C@@H](C)O)[C@@H](C)CC)[C@@H](C)CC)C(C)C)C(C)C
In the case of B4, the EC50 [nM], 0% HSA amounted to 0.07 nM.

The values above are taken from patent US12679878B2, “CRF2 receptor agonists and their use in therapy” (SANOFI, priority 2020, dated 2026).
